Reference: article PMC7930613, “Exploring the Potential of Cytochrome P450 CYP109B1 Catalyzed Regio—and Stereoselective Steroid Hydroxylation” (Frontiers in Chemistry, 2021)

Columns and labels:
Assay in all cases: HPLC, steroid hydroxylation rate, hyperbolic fit
Assay type in all cases: biochemical, Bacillus subtilis
Settings in all cases: 1 mM NADPH, redox partners Fdr_0978 (4 μM) and Fdx_1499 (20 μM), 2 mM MgCl2, pH 8.0, 30°C
[1] = system: C[C@]12CC[C@H]3[C@@H](CCC4=CC(=O)C=C[C@@]43C)[C@@H]1CC[C@@H]2O
From the text: (§1) HPLC, steroid hydroxylation rate, hyperbolic fit on CYP109B1

[2] = system: T1, C[C@]12CC[C@H]3[C@@H](CCC4=CC(=O)CC[C@@H]43)[C@@H]1CC[C@@H]2O
T1 construct: assayed with separate redox partners Fdr_0978/Fdx_1499
From the text: as §1

[3] = system: C[C@]12CC[C@H]3[C@@H](CCC4=CC(=O)CC[C@@]43C)[C@@H]1CC[C@@H]2O
From the text: as §1

[4] = system: T2, [H][C@@]12CC[C@H](O)[C@@]1(C)CCC1=C3CCC(=O)C=C3CC[C@]12[H]
T2 construct: assayed with separate redox partners Fdr_0978/Fdx_1499
From the text: as §1

CYP109B1 (Bacillus subtilis subsp. subtilis str. 168)
Km [1]: 193.1 ± 38.2 µM
kcat [1]: 0.0583 ± 0.00333 s⁻¹
kcat/Km [1]: 300 M⁻¹ s⁻¹
Km [2]: 136.3 ± 18.4 µM
kcat [2]: 0.0717 ± 0.00167 s⁻¹
kcat/Km [2]: 517 M⁻¹ s⁻¹
Km [3]: 83.7 ± 20.4 µM
kcat [3]: 0.0783 ± 0.005 s⁻¹
kcat/Km [3]: 933 M⁻¹ s⁻¹
Km [4]: 163.1 ± 38.4 µM
kcat [4]: 0.197 ± 0.0117 s⁻¹
kcat/Km [4]: 1200 M⁻¹ s⁻¹
